Common to all, as to assay: holdup assay
Design in all cases: key: below the threshold = too weak to quantify, mostly under pKd 3.1 to 4

Assay [1] deals with T1, RAPGEF6, Q8TEU7.
T1 sequence (Q8TEU7 525-625, limits assumed, looked up): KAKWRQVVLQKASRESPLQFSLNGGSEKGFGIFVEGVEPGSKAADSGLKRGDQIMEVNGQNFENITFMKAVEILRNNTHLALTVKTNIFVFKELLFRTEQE

Assay [2] concerns the target T2, FRMPD1, Q5SYB0.
T2 sequence (Q5SYB0 52-145, limits assumed, looked up): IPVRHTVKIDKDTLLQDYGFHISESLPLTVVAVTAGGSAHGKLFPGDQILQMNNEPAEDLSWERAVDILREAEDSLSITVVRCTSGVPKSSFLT

Assay [3] addresses HTRA1, Q92743.
Assay [4] addresses T3, DFNB31_1, Q9P202.
T3 sequence (Q9P202 135-233, limits assumed, looked up): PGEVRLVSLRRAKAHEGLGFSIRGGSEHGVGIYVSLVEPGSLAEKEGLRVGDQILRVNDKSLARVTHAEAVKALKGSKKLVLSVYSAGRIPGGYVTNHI

The target of assay [5] is DLG4_2, P78352.
The target in assay [6] is PTPN3, P26045.
In assay [7] the target is T4, LNX2_2, Q8N448.
T4 sequence (Q8N448 334-432, limits assumed, looked up): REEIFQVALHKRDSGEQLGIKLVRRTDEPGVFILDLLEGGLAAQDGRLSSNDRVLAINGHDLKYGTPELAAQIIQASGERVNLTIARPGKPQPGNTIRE

Assay [8] deals with T5, LIN7B, Q9HAP6.
T5 sequence (Q9HAP6 88-185, limits assumed, looked up): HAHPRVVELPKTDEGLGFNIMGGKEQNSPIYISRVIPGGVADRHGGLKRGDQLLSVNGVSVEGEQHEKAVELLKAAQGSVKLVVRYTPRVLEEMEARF

The target of assay [9] is T6, PDZRN3_1, Q9UPQ7.
T6 sequence (Q9UPQ7 244-349, limits assumed, looked up): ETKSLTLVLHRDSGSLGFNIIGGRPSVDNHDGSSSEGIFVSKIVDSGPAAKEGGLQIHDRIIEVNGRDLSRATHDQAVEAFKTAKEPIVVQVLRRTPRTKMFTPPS

Assay [10] addresses T7, PDZD7_3, Q9H5P4.
T7 sequence (Q9H5P4 857-944, limits assumed, looked up): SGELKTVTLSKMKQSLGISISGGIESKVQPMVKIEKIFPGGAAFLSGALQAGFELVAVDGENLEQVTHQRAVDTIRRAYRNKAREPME

Assay [11] addresses DLG1_2, Q12959.
In assay [12] the target is T8, NHERF3_4, Q5T2W1.
T8 sequence (Q5T2W1 373-468, limits assumed, looked up): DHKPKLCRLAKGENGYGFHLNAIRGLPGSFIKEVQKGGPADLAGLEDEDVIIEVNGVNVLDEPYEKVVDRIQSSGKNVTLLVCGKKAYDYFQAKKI

The target in assay [13] is T9, TIAM2, Q8IVF5.
T9 sequence (Q8IVF5 885-986, limits assumed, looked up): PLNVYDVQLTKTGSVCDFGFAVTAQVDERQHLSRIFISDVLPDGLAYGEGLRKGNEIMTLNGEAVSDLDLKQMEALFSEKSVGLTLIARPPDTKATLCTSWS

Assay [14] deals with T10, LIN7A, O14910.
T10 sequence (O14910 103-200, limits assumed, looked up): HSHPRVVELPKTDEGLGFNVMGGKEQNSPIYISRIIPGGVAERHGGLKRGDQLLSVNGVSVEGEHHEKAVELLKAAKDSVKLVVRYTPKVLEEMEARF

The target in assay [15] is LNX1_2, Q8TBB1.
The target of assay [16] is SCRIB_2, Q14160.
Assay [17] addresses T11, SIPA1L2, Q9P2F8.
T11 sequence (Q9P2F8 945-1036, limits assumed, looked up): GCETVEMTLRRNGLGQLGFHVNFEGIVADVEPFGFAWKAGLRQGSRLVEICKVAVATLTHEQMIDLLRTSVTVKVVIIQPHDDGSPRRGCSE

Assay [18] concerns the target SNX27, Q96L92.
For assay [19], the target named is T12, SYNJ2BP, P57105.
T12 sequence (P57105 8-110, limits assumed, looked up): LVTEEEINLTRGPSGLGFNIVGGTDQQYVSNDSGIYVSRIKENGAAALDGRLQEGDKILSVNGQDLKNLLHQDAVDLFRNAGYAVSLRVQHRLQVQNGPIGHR

Assay [20] addresses T13, MPDZ_10, O75970.
T13 sequence (O75970 1624-1722, limits assumed, looked up): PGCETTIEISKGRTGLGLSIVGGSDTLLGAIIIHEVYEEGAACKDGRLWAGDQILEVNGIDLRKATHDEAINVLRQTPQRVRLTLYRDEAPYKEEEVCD

For assay [21], the target named is MAST2, Q6P0Q8.
The target in assay [22] is FRMPD2_2, Q68DX3.
For assay [23], the target named is Inadl_3, Q8NI35.
The target of assay [24] is FRMPD3, Q5JV73.
Where [25] appears, read: plain residues with an end cap or a label only (N-terminal biotin on a linker: ado-ado).
The mark [26] stands for this setting: modified: phospho on S at position -3 from the C-terminal residue.
Setting [27] is: modified: acetyl on K at position -1 from the C-terminal residue.

Sequence of DLG1_2, Q12959 (Q12959 314-412): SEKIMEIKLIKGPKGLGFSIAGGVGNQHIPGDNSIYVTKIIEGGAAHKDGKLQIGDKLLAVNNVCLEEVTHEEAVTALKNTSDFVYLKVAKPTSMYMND
Sequence of FRMPD3, Q5JV73 (Q5JV73 12-100): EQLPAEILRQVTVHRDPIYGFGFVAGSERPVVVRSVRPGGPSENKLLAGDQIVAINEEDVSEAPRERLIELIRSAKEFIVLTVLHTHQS
Sequence of HTRA1, Q92743 (Q92743 360-477): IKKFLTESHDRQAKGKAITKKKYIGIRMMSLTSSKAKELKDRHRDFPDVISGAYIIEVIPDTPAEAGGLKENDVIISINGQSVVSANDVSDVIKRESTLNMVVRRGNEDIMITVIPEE
Sequence of FRMPD2_2, Q68DX3 (Q68DX3 944-1038): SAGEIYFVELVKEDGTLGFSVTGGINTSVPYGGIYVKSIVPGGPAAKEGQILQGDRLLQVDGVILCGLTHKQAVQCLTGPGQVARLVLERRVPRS
Sequence of LNX1_2, Q8TBB1 (Q8TBB1 371-470): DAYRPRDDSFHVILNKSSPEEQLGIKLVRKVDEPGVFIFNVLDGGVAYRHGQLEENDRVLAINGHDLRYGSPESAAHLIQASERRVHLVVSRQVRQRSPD
Sequence of Inadl_3, Q8NI35 (Q8NI35 359-469): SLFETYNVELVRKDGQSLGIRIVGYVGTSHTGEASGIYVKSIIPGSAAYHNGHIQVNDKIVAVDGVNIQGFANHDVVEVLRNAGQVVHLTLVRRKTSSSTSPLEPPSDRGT
Sequence of MAST2, Q6P0Q8 (Q6P0Q8 1099-1202): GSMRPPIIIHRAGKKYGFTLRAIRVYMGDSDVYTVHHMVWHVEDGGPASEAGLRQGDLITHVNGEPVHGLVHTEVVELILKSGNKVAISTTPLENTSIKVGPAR
Sequence of DLG4_2, P78352 (P78352 155-259): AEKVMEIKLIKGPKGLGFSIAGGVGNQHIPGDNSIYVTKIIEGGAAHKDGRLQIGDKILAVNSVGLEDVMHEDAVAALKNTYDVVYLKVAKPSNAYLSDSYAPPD
Sequence of PTPN3, P26045 (P26045 505-587): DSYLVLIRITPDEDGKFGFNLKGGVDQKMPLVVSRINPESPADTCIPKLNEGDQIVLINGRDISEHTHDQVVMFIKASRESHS
Sequence of SCRIB_2, Q14160 (Q14160 857-960): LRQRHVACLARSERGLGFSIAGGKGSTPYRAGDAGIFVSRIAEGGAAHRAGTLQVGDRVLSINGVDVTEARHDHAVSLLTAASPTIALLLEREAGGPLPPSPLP

Usually pKd stands for the Kd on a negative log10 scale, so that one unit is a factor of ten. Regarding PDGEMMEVLI [AMOTL1, Q8IY63], the pKd entry in assay [1] (setting [25]) is “below the threshold”; in assay [2] (setting [25]), “below the threshold”; in assay [3] (setting [25]), 5.05; in assay [4] (setting [25]) it was “below the threshold”; in assay [5] (setting [25]), “below the threshold”; in [6] (setting [25]), “below the threshold”. Further, the pKd in assay [7] (setting [25]) was 5.03; in assay [8] (setting [25]), 3.72; in [9] (setting [25]) it was “below the threshold”; in [10] (setting [25]) it was “below the threshold”; in assay [11] (setting [25]) it was “below the threshold”; in [12] (setting [25]), “below the threshold”. Also, the pKd in assay [13] (setting [25]) is 3.86; in assay [14] (setting [25]) it was “below the threshold”; in assay [15] (setting [25]), “below the threshold”; in assay [16] (setting [25]), “below the threshold”; in assay [17] (setting [25]), “below the threshold”; in [18] (setting [25]) it was “below the threshold”. Besides, the pKd result in [19] (setting [25]) is “below the threshold”; in assay [20] (setting [25]), “below the threshold”; in assay [21] (setting [25]), 3.73; in assay [22] (setting [25]), “below the threshold”; in [23] (setting [25]) it was 5.08; in assay [24] (setting [25]), “below the threshold”.

FEEEAEEEVA [TUBB4B, P68371]: the negative logarithm of the Kd (pKd) entry in assay [1] (setting [25]) is “below the threshold”; in assay [2] (setting [25]), “below the threshold”; in [3] (setting [25]) it was 3.58; in assay [4] (setting [25]), “below the threshold”; in assay [5] (setting [25]) it was “below the threshold”; in [6] (setting [25]), 3.54. For the same molecule, the pKd entry in assay [7] (setting [25]) is “below the threshold”; in assay [8] (setting [25]), 3.58; in assay [9] (setting [25]), “below the threshold”; in [10] (setting [25]), “below the threshold”; in assay [11] (setting [25]), “below the threshold”; in [12] (setting [25]), “below the threshold”. In addition, the pKd in assay [13] (setting [25]) is 3.74; in assay [14] (setting [25]), “below the threshold”; in assay [15] (setting [25]) it was “below the threshold”; in assay [16] (setting [25]) it was “below the threshold”; in assay [17] (setting [25]), “below the threshold”; in [18] (setting [25]), “below the threshold”. Further, the pKd entry in [19] (setting [25]), in [20] (setting [25]), in [21] (setting [25]), in assay [22] (setting [25]), in assay [23] (setting [25]) and in [24] (setting [25]) was “below the threshold” each time.

With RRVRKLPSTTL [RPS6KA1_-3P, Q15418], the pKd entry in assay [1] (setting [26]) is “below the threshold”; in assay [2] (setting [26]), “below the threshold”; in assay [3] (setting [26]), “below the threshold”; in assay [4] (setting [26]) it was 3.6; in assay [5] (setting [26]) it was “below the threshold”; in [6] (setting [26]), 4.51. For the same molecule, the pKd result in assay [7] (setting [26]) is “below the threshold”; in assay [8] (setting [26]) it was “below the threshold”; in assay [9] (setting [26]) it was “below the threshold”; in assay [10] (setting [26]), 3.72; in [11] (setting [26]), 3.61; in assay [12] (setting [26]) it was “below the threshold”. For the same molecule, the pKd entry in assay [13] (setting [26]) was “below the threshold”; in assay [14] (setting [26]), “below the threshold”; in assay [15] (setting [26]), “below the threshold”; in assay [16] (setting [26]), “below the threshold”; in [17] (setting [26]) it was “below the threshold”; in assay [18] (setting [26]) it was 4.1. In addition, the pKd in [19] (setting [26]) is 4.48; in assay [20] (setting [26]) it was “below the threshold”; in assay [21] (setting [26]), 4.21; in assay [22] (setting [26]), “below the threshold”; in [23] (setting [26]) it was “below the threshold”; in assay [24] (setting [26]), “below the threshold”.

As to DEDQHTQITKV [PTEN_Ac, P60484], the pKd result in assay [1] (setting [27]) was “below the threshold”; in assay [2] (setting [27]), “below the threshold”; in assay [3] (setting [27]) it was 5.03; in assay [4] (setting [27]), 3.68; in [5] (setting [27]) it was 4.58; in assay [6] (setting [27]), 4.2. The pKd was 5.03 in assay [7] (setting [27]); 3.57 in assay [8] (setting [27]); “below the threshold” in assay [9] (setting [27]); 5.82 in assay [10] (setting [27]); 4.67 in [11] (setting [27]); “below the threshold” in [12] (setting [27]). Further, the pKd entry in assay [13] (setting [27]) was “below the threshold”; in assay [14] (setting [27]), “below the threshold”; in [15] (setting [27]), 4.18; in assay [16] (setting [27]), “below the threshold”; in [17] (setting [27]) it was “below the threshold”; in assay [18] (setting [27]) it was 5.32. The pKd was 3.61 in [19] (setting [27]); 4.18 in [20] (setting [27]); 5.14 in [21] (setting [27]); 4.58 in [22] (setting [27]); “below the threshold” in [23] (setting [27]); “below the threshold” in [24] (setting [27]).

The values above are taken from article PMC9482650, “Quantitative fragmentomics allow affinity mapping of interactomes” (Nature Communications, 2022).
